{
  "source": "the nanobody polyreactivity screen of Harvey et al. (2022)",
  "data": [
    {"assay": "yeast display, Sf9 membrane polyspecificity reagent, FACS + sequencing; frameworks hold sequencing errors", "summary_of_the_method": "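A nanobody's polyreactivity label depends on the gate it was sorted from. Yeast display cells were stained with 10% biotinylated, detergent-solubilized Sf9 membrane reagent for 1 hour at 4 °C, enriched on streptavidin microbeads and sorted by FACS. The low and high (top ~1%) gates were set on anti-HA fluorescence for expression and streptavidin fluorescence for reagent binding.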", "values": [
      {"sequence": "QGQLVESGGGLVQAGGSLRLSCAASGSTFGYNVMGWYRQATGKERELVAAINYSGVRTYYADSVKGRFTISRDNAKNTVYLQMNSLIPEDTAVYYCNATPTRAVGPYQYNYWGQGTQVTVSS", "polyreactivity (PSR sort gate)": "high polyreactivity"},
      {"sequence": "QGQLVESGGGLVQAGGSLRLSCAASGSTFQGYAMGWYRQAPGKERELVAAISGRSGSTYYADSVKGRFTISRDNAKNTVYLQMNSLKPEDTADYYCAAGIPFRQRLRRYYYWGQGSQVTVSS", "polyreactivity (PSR sort gate)": "high polyreactivity"},
      {"sequence": "QGQLVESGGGLVQAGGSLRLSCAASGSTFTSSAMGWSRQGPGKERELVAAISRSGGRTYYADSVKGRFTISRDNAKTTVYLQMNSQKPEDTAVYYCAADRSRWGQGTQVTVSS", "polyreactivity (PSR sort gate)": "high polyreactivity"},
      {"sequence": "QGQLVESGGGLVQAGGSLRLSCAASGSTFVYYARGWYRQAPGKEREMVAAIRYSGASTYYADSVKGRFTISRDNAKNTVYLQMNSLKPEDTAVYYCAAQPTTRRVPRFSSRARHYYWGQGTQVTVSS", "polyreactivity (PSR sort gate)": "high polyreactivity"},
      {"sequence": "QGQLVESGGGLVQAGGSLRLSCAASGSTVSYNAMGCSRPARGKERALVAAISSGGRTYYADSVKGRFTISRDNAKKTVYFQMNSLKPEDTAVYYCAVYETHWGYWYELDYWGQGTQVTVSS", "polyreactivity (PSR sort gate)": "high polyreactivity"},
      {"sequence": "QGQLVESGGGLVQAGGSLRLSCAPSGGTFEFYTMGWYRQAPGKERELVAVINASGDSTYYADSVKGRFTISRDNAKNTVYLQMNSLKPEDTAVYYCAADHRGEYDYWGQGTQVTVSS", "polyreactivity (PSR sort gate)": "low polyreactivity"},
      {"sequence": "QGQLVESGGGLVQAGGSLRLSCDASGSTFFENTMGWYRQAHGQERELVAAITSGGGRPYYADSVKGRFTISRDNAKNTVYLQLNSLKPEETAVYYCAARARYTRRGRHYDYWGQGTQVTVSS", "polyreactivity (PSR sort gate)": "high polyreactivity"},
      {"sequence": "QGQLVESGGGLVQAGGSLRLSSAASGSTHALYTMGWYRQARGKARQLVAAISKNGGRTYYADSVKGRFTISRDNAKNTVYVQMNSLKPEDTAVYYCAAASGSYRGYDYWGQGTQVTVSS", "polyreactivity (PSR sort gate)": "high polyreactivity"},
      {"sequence": "QGQLVESGGGLVQAGGSLRLTCAASGSNFVQNAMGWYRPAPGKERELVAVSNSGDSTNYADSVKGRFTISRDNAKNTVYLHMNSLKPEDNAVYYCAVDDVSYYYLRAYNYELSWYGSGLDYWGQGTQVTVSS", "polyreactivity (PSR sort gate)": "low polyreactivity"},
      {"sequence": "QGQLVESGGGLVQAGGSLRLTCAASGSTFRWNVMGWYRQAPGKERELVAAISSTGDNTYYADSVKGRFTISRDNAKNTGYLQMNSLKPEDTAVYYCAAGRGARDRARKHGYWGQGTQVTVSS", "polyreactivity (PSR sort gate)": "high polyreactivity"},
      {"sequence": "QGQLVESGGGLVQAGGSLSLSCAASGFIFSGYAMGWYRQAPGKERELVAAISTRGGRTYYADSVKGRFTISRDNAKNTVYLQMNSLKPEDTAVYYCAADSLYPELDYWGQGTQVTVSS", "polyreactivity (PSR sort gate)": "high polyreactivity"},
      {"sequence": "QGQLVESGGGLVQAGVSLRLSCAASGSTFRDYAMGWYRQAPGKERELVASITSGGSTNYADSVKGRFTISRDNAKNTVYLQMNSLKPEDTAVYYCGAESMPRWFVRYDYWGQGTQVTVSS", "polyreactivity (PSR sort gate)": "low polyreactivity"},
      {"sequence": "QGQLVESGGGLVQAVGSLRLSCAASGITLRIYAMGWYRQAPGKEREMVAGITSGGSTNYADSVKGRFTLSRDNAKNTVYLQMNSLKPEDTAVYYCAARQVRTSKLHMGYWGQGTQVTVSS", "polyreactivity (PSR sort gate)": "low polyreactivity"},
      {"sequence": "QGQLVESGGRLVQAGGSLRLSCAASGRIFGWYDMGWYREEPGKERELVAAINWSGGSTYYADSVKGRFTISRDNEKNTFYLQMNCLKPEDTAVYYCAADVAQVGYQVGVSEIYPGYEYWGQGTQVNVSS", "polyreactivity (PSR sort gate)": "low polyreactivity"},
      {"sequence": "QGQLVESWGGLVQAGGSLRLSCAASGRIFYGYVMGWYREAPGKERELVAAINHSGTSTYYADSVKGRFTISRDIAKNTVYLQMNIMKPEDTAVYYCAADQVGWTYDYWGQGTQVTVSS", "polyreactivity (PSR sort gate)": "low polyreactivity"},
      {"sequence": "QGQLVESWGGLVQAGGSLRLSCAASGSTFVFNAMGWYRQAPGKERELVAAISIDGSTNYADSVKGRFTISRDNAKNTVYLQMNSLEPEDTAVYYCNAKRYGFFYWQGDYWGQGTQVTVSS", "polyreactivity (PSR sort gate)": "low polyreactivity"},
      {"sequence": "QGQLVETGGGLVQAGGSLRLSCGASGSTFLWNTIGWYRQGPRKERELVAEIRTSGGGTYYADSVKGRFTISRDNAKNTVYLQMNSLKPEDTEVYYCYADPKWEMGSWGQGTQVTVSS", "polyreactivity (PSR sort gate)": "low polyreactivity"},
      {"sequence": "QGQRVESGGGLVQAGGSLRLSCAASGFIFAHNAMGWYRPAPGTETEFVAAISANTGNTYYADSVKGRFTISRDNAKNTVYLQMNSLKPEDTAVYYCRSFYYWGQGTQVTVSS", "polyreactivity (PSR sort gate)": "high polyreactivity"},
      {"sequence": "QGQRVESGGGLVQAGGSLRLSCAASGSTFEDNAMGWSRPAPGKERELVAAITTGGGSTYYADSVKGRFTISRDNAKNTVYLQMNSLKPEDTAVYYCAADWSYYYSRNYESDYWGQGTQVTVSS", "polyreactivity (PSR sort gate)": "low polyreactivity"},
      {"sequence": "QHQLGESGGGLVQAGGRLRLSCAASGRIFHVSAMGWYREAPGKERELVAAISSGDRTYYADSGKGRFIISRDNAKNSVYLQLNSLKPEDTAVYYCWRYPAAESNYWGQGTQVTVSS", "polyreactivity (PSR sort gate)": "low polyreactivity"},
      {"sequence": "QHQLVESGGGLVQAGGSLRLSCAASGSIFWRYVMGWYRPAPGKERELVAAISSGGGITYYADSVTGRFTISRDTAKNTLYLQMNSLKPEDTAVYYCAAYGSLSPKYGYWGQGTQVNVSS", "polyreactivity (PSR sort gate)": "high polyreactivity"},
      {"sequence": "QLHLVESGGGLVQAGGSLRLSCAASGYIFNYNAMGWSRQAPGTQREFVAAISQGGGSTYYADSVKGRFTISRDNSKYTVYLQMNRLKPEDTAVYYCAADYRSGYREMDYWGQGTQVTVSS", "polyreactivity (PSR sort gate)": "low polyreactivity"},
      {"sequence": "QLHLVESGGGLVQAGGSLRLSCAGSGFTFGHSAMGWYRQAPGNDRELVASITWSGGSTYYADSVKGRFTISRDNAKNTVYLQMNSRKPEDTAVYYCNAQERRVRDYDYWGQGTQVTVSS", "polyreactivity (PSR sort gate)": "low polyreactivity"},
      {"sequence": "QLQHVESGGGLVQAGGSLRLSCAASGRTFWYYAMGWYRQAPGTESELVAAISRGGGSTYYADSVKGSFTISRDTAKNTVYLQMNILKPEDTAVYYCAVASDYRGYYYWGQGTQVTVSS", "polyreactivity (PSR sort gate)": "high polyreactivity"},
      {"sequence": "QLQHVESRRGLVQAGGSLRLSCAASGLTFVGYAMGWYRQAPGKERELGAAISGVGTTNYADSVKGRFTISRDNAKNTVYFQMNSLKPEDSAVYYCAKAPYPVPYGLYDYWGQGTQVTVSS", "polyreactivity (PSR sort gate)": "low polyreactivity"},
      {"sequence": "QLQIVESGGGLVQAGGSLRLISAASGSTLAYYAMGWYRQEPGKERELVAAINWRTYYADSVKGRFTISRDNAMNTLYLQMNSLKPEDTAVYYCAAGYYLNKFYYWGQGTQVTVSS", "polyreactivity (PSR sort gate)": "high polyreactivity"},
      {"sequence": "QLQLDESRGGLVQAGRSLRLSCAASGGNFRYYAMGWYRQAPGKERELDAAISSGGSTNYADSVKVRFTISRDNAKNTVYLQMNSLKREDTAVYYCAADVIYYYAYYTYDYWGQGTQVTVSS", "polyreactivity (PSR sort gate)": "low polyreactivity"},
      {"sequence": "QLQLEESCGGLVQAGGSLRLSCAATGFIFGKYAMGWYRQAPGKQREFVAAITRSGGSTYYADSVKGRVTISRDNAKNTVFLQMFCLKPEDTAVYYCNARISERGWRYYYWGHGTQVTVSS", "polyreactivity (PSR sort gate)": "high polyreactivity"},
      {"sequence": "QLQLEESGGGLVQAGGSLRLSCAAYGSIYYYNGMGWYRQAPAKERELVAAISSSGGRTYYADSVKGRFTISRDNENNTVYLQMNSLKPEDPAVYYCYDSGFGKTGFGYDYWGQGTQVTVSS", "polyreactivity (PSR sort gate)": "low polyreactivity"},
      {"sequence": "QLQLEESGGGLVQAGGSLRLSSAASGRTFYYYAIGWYRQAPGKERELVAAISRGGSTYYADSVKGRFTISRDNAKITVYLQMHSLKPEDTAVYYCAAVLRPDRYDYWGQGTQVTVSS", "polyreactivity (PSR sort gate)": "high polyreactivity"},
      {"sequence": "QLQLHESGGVQAGGSLRLSCAAGGYISRSDVMGWYRQAPGKERELVATINNGTITYYADSVKGRFNISRDNAKNTVYLQMNSLKREDTAVHYWAVVQSDCDSLYYWGQGTQVTVSS", "polyreactivity (PSR sort gate)": "low polyreactivity"},
      {"sequence": "QLQLQESGGGLVLAGGSLRLSCSASGNISVYGSMCWYRQAPGKEREFVATIDPGTNTNYADSVKDRFTISRDNAKNTVYLQMNSLKPEDTAVSYCAVEAGSDWPYRYRGQGTQVTVSS", "polyreactivity (PSR sort gate)": "low polyreactivity"},
      {"sequence": "QLQLQESGGGLVQSGGSLRLSCAASGTISFTRDMGWYRQAPGKEREFVASIDRGASTYYADSVKGRFTISRDNAKNTVYLQMNSLKPEDTAVYYRAFIAPFYSSFAYWGQGTQVTVSS", "polyreactivity (PSR sort gate)": "high polyreactivity"},
      {"sequence": "QLQLVESGGALVQAGGSLRLSCAASGFTFSRNVMGWYRQAPGKERELVAAISSGSTYYADSVKGRFTISRDNAKKTVYLQMNSLKPEDTAVYYCAKRGRLRNYDYWGQGTKVTVSS", "polyreactivity (PSR sort gate)": "high polyreactivity"},
      {"sequence": "QLQLVESGGGLVQAGGILRLSCAASGLIFAEYAMGWYRQAPAKERELVARITSGGSTDYADSVKGRFTISRDNAKNTVYLQMNSLKPEDTAVYYCAARYYSQDKNASTASDFDYWGQGTQVTVSS", "polyreactivity (PSR sort gate)": "low polyreactivity"},
      {"sequence": "QLQLVESGGGLVQAGGSLRLSCAASGFIFHRNAMGWYRQAPGKERELVAAISGSGGSTYYADSVNGRFTISRDNAKNTVYLQMNSLKPEDTAVYYCAKRGRSTYGYDYWGQGTQVNVSS", "polyreactivity (PSR sort gate)": "high polyreactivity"},
      {"sequence": "QLQLVESGGGLVQAGGSLRLSCAASGFIFYYNVMGWYRQAPGKERELVAAIRYRGTITYYADSVKGRFTISRDIAKNTVYLQMNSLKPEDTAVYYCARRQRNYYRSSPGGDYWGQGTQVTVSS", "polyreactivity (PSR sort gate)": "low polyreactivity"},
      {"sequence": "QLQLVESGGGLVQAGGSLRLSCAASGFISWCNAMGWYRQAPGKERELVAAISWRDARTYYADSVKGRFTLSRDNAKNTVYLQMNSLKPEDTAVYYCNAVTAYVSRYLRGYRWFDYWGQGTQVTVSS", "polyreactivity (PSR sort gate)": "low polyreactivity"},
      {"sequence": "QLQLVESGGGLVQAGGSLRLSCAASGFTFRWNGMGWYRQAPGKERELVPSISSTGGSTYYADSVKGRFTISRDNAKNTVYLQMNSLKPEDTAVYYCNAVVTYHYSVTSVGSRFDYWGQGTQVTVSS", "polyreactivity (PSR sort gate)": "high polyreactivity"},
      {"sequence": "QLQLVESGGGLVQAGGSLRLSCAASGFTFYYNALGWYRQAPGKDRELVSSITRSGGRTYYAESVKGRFTISRENAKNTVYLQKNSLKPEDTAVYFCARRYPGGYYWGQGTQVTVSS", "polyreactivity (PSR sort gate)": "high polyreactivity"},
      {"sequence": "QLQLVESGGGLVQAGGSLRLSCAASGIIFIYNGMGWYRQAPGKERELVATINWSGGNTYYADSVKGRFTISRDNAKNTVYLQMNSLKPEDTAVYYCAVRGSRYWGYDYWGQGTQVTVSS", "polyreactivity (PSR sort gate)": "low polyreactivity"},
      {"sequence": "QLQLVESGGGLVQAGGSLRLSCAASGITFPFYDMGWYRQAPGKEREFVAAISWSAGNTYYADSVKGRFTISRDNAKNTVYLQMNSLKPEDTAVYYCAAYGPSYEEDYWGQGTQVTVSS", "polyreactivity (PSR sort gate)": "high polyreactivity"},
      {"sequence": "QLQLVESGGGLVQAGGSLRLSCAASGLTIWRYAKGCYRQAPGKEREFVATISQNGGRTYYADSVKGRFTISRDNAKNSVYLQMNSLKPEDTAVYYCAADDWRWGYDYWVQGTQVTVSS", "polyreactivity (PSR sort gate)": "high polyreactivity"}
    ]}
  ]
}
